T1: mouse E-cadherin (form in the assay not stated) (mouse, UniProt P09803 157-709, limits assumed)
T1 construct: neither place states the form; also called the mouse E-cadherin
T1 sequence (looked up): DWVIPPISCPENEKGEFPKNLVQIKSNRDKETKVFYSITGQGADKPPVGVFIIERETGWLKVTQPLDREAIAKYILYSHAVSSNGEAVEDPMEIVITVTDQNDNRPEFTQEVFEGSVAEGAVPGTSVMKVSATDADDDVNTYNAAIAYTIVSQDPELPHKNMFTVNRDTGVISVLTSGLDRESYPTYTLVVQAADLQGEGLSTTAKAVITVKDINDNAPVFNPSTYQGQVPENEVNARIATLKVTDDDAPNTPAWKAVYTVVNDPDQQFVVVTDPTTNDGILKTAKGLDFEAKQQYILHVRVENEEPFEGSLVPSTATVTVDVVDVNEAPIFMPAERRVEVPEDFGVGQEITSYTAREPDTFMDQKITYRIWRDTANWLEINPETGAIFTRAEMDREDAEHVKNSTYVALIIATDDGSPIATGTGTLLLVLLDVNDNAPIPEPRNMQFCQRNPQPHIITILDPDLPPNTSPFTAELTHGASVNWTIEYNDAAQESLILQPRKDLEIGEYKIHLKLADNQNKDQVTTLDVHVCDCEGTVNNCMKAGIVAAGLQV

T2: mouse E-cadherin on cells (endogenous on 4T1 and Py2T cells; expressed in colo205 cells) (mouse, UniProt P09803 157-884)
T2 construct: whole, on cells; also called endogenous mouse E-cadherin; mE-cadherin
T2 sequence (looked up): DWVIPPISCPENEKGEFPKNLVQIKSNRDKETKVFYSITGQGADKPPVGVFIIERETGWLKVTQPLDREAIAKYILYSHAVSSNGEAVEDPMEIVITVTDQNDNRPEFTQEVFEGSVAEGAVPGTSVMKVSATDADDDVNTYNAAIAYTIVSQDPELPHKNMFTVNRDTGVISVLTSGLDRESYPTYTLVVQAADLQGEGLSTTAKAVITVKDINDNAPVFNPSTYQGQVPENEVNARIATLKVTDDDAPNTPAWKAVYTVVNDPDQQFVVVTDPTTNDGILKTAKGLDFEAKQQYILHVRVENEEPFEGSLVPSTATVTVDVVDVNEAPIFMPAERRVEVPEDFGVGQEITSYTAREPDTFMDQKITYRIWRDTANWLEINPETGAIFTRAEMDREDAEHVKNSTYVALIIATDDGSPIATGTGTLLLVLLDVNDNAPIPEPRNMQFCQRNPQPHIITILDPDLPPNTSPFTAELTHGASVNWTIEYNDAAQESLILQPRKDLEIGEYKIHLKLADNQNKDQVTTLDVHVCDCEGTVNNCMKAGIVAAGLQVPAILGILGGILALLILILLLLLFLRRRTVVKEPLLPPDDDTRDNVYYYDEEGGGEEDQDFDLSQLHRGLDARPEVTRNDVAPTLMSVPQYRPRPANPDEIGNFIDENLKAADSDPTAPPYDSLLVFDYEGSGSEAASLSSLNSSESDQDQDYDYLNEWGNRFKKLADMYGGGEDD


How the values were obtained:
[1] = target: T1, mouse E-cadherin (form in the assay not …); assay: not described
[2] = target: T2, mouse E-cadherin on cells (endogenous …); assay: immunofluorescence staining of parental 4T1 cells, antibody at 1 µg/mL for 7 hrs
[3] = target: T1, mouse E-cadherin (form in the assay not …); assay: ELISA of hybridomas

Row | binding result [1] | binding result [2] | binding result [3] | Binder
1 | no binding |  |  | mouse anti-human E-cad monoclonal antibody mAB-1_19A11 (antibody, V domains shown, also called mAb 19A11) VH: QVQLKESGPGLVAPSQSLSITCTVSGFSLSRYGVHWVRQPPGKGLEWLGMMWGGGNTDYNSALKSRLSISKDNSKSQVFLKMNSLQTDDTAMYYCASSNYVLGYAMDYWGQGTSVTVSS VL: DIVMTQSPSSLAMSVGQKVTMNCKSSQSLLNSSNQKNYLAWYQQKPGQSPKLLIYFTSTRGSGVPDRFIGSGSGTDFTLTISSVEAEDLADYFCQQHYRTPHTFGGGTKVEIK
2 |  | binds | binds | rabbit anti-mouse E-cad monoclonal antibody mAb-2_18-5 (antibody, mouse IgG1, V domains shown, also called Whole IgG 18.5) VH: EQLEESGGGLVKPGASLTLTCTASGFDLSTYFYMCWVRQAPGKGLEWIACIYVGSTGDTYYANWAKGRFTISKTSSTTVTLQMTSLTDADTATYFCARDIFATGINYYRALWGPGTLVTVSS VL: AFELTQTPASVEAGVGGTVTIKCQASESINSWLSWYQQKPGQPPTLLIYSASTLASGVPSRFKGSRSGTQFTLTISDLECADAATYYCQSYYGTSTTAFGGGTEVVVK

Reference: patent US20220298255A1 (SEATTLE CHILDREN S HOSPITAL D B A SEATTLE CHILDREN S …, published 2022)
